We go through 1 molecule from PMC11618752 (2024).

The target of this test is XPO1 protein, recombinant (UniProt O14980 1-1071). Nature of the test: ITC.
Chain of XPO1 protein, recombinant (O14980 whole entry): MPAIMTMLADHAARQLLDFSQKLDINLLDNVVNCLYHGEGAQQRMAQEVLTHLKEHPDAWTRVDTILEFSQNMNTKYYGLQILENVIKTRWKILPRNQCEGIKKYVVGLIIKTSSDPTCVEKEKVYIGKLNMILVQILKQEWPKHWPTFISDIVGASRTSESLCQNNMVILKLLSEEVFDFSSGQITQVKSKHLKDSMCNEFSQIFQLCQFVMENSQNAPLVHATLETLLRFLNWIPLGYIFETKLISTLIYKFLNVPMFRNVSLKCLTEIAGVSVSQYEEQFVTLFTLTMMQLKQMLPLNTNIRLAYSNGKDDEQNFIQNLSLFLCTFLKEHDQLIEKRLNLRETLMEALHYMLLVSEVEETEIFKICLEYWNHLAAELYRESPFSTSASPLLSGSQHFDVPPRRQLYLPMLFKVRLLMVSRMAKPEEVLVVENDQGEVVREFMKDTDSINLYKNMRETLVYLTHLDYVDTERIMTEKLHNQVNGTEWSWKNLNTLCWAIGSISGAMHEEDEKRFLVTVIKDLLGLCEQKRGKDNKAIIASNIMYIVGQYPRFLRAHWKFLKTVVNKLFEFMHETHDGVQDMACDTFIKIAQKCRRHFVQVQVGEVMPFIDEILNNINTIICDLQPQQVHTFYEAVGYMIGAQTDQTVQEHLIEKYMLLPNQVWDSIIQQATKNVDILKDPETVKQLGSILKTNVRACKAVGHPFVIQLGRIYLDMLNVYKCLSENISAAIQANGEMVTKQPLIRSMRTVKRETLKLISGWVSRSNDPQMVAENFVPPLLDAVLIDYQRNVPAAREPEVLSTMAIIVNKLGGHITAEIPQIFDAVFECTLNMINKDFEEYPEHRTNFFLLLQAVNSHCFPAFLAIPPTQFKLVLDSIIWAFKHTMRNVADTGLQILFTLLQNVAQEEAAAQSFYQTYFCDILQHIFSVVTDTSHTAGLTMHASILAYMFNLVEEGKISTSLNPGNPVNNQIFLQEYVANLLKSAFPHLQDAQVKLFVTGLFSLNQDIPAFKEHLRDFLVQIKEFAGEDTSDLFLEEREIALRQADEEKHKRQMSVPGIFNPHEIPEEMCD

As for LLFALKVLNM [NES peptide (173–182 aa of TIRR)], the Kd came to 45 µM.
